Source: article PMC13138755, “Potential Rad54 separation of function mutation highlights unique roles during homologous recombination”

Target: T1, Rad54 (Saccharomyces cerevisiae, UniProt P32863 1-898)
T1 sequence: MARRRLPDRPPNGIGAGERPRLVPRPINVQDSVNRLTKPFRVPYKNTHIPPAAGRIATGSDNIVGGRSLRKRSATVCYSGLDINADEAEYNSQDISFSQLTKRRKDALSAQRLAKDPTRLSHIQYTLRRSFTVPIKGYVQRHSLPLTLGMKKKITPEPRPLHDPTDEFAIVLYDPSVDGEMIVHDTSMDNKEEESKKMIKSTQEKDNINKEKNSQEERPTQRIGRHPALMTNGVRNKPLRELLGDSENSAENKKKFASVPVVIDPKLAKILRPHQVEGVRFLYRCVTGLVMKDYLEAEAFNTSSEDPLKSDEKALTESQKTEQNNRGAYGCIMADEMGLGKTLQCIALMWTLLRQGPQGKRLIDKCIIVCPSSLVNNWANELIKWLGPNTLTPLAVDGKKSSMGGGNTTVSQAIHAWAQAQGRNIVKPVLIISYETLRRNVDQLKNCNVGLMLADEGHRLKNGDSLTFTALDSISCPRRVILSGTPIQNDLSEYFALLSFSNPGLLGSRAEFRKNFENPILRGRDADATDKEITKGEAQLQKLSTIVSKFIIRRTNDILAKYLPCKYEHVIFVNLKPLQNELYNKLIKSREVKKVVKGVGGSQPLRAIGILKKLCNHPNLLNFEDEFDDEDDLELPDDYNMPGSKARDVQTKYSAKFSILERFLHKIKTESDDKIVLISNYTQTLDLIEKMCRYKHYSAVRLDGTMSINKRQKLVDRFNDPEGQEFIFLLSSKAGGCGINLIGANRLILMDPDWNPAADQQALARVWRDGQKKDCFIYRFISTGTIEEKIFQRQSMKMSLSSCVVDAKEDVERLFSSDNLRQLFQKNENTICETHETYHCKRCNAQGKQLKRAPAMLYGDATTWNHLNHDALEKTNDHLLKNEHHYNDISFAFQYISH
Test: EMSA; apparent Kd; Hill fit; 3 mM Mg2+; EMSA: 35 mM Tris-Cl pH 7.5, 3 mM MgCl2, 50 mM KCl, 1 mM DTT, 10% glycerol, 10 nM DNA, 30 C, 5 min, 8% native PAGE in 0.5x TBE; DNA curtains: HR buffer (composition not given), 10 nM GFP-Rad54, flow 0.2 mL/min
Conditions: protein: recombinant; tags: GFP-GST (N-term); label: Atto647N 5' on strand 1; blunt

B1: 90 bp dsDNA (90-mer) (dsDNA)
DNA 1: GATGTTCTGCTGGATATGCACTTTTCCGGGCTGACGTACACCGTGCTCAGCCTGTTTTTCAGCGATCCGGATATGCATCCGCTGGATTTC
DNA 2: GAAATCCAGCGGATGCATATCCGGATCGCTGAAAAACAGGCTGAGCACGGTGTACGTCAGCCCGGAAAAGTGCATATCCAGCAGAACATC
- Kd: 21 nM
